The target of series [1] is T1, Sen1Hel (crystal construct, loop 1,471-1,538 removed) (Saccharomyces cerevisiae, UniProt Q00416, DEL1471-1538).
T1 construct: gene SEN1; helicase core 1095-1904 with disordered loop 1471-1538 replaced by a (Gly-Ser)2 linker; C-terminal CPD-His8 tag cut off with 3C; expressed in E. coli; model covers 1096-1875
T1 sequence (Q00416 with tags, fused parts or gaps DEL1471-1538): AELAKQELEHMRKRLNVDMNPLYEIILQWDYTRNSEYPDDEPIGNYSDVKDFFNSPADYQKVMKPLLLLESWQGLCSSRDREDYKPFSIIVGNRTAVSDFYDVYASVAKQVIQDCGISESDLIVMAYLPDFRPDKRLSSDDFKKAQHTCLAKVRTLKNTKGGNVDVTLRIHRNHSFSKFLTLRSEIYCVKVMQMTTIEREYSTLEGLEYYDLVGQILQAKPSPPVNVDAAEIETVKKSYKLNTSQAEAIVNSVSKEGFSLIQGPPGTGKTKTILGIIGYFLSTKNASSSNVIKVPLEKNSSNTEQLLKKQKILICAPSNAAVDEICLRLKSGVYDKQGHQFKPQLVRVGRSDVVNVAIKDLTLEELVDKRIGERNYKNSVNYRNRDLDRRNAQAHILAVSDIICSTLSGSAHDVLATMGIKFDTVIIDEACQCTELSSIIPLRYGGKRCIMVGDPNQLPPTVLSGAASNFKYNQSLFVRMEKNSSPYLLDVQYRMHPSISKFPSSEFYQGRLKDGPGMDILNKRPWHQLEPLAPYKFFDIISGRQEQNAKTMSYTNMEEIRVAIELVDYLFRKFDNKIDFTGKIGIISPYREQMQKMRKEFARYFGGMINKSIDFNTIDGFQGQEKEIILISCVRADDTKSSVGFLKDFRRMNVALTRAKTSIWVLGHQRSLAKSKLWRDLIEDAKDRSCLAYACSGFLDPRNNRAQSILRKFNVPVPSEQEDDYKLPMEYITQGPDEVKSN
As to the kind of experiment: X-ray crystal structure, […] A. Type of series: binding. The following applies: 10-fold molar excess ADP, HEPES pH 7.5, 4 C; nucleotide site on RecA1, no RNA.

Series [2] has as its target T2, Sen1Hel (Saccharomyces cerevisiae, UniProt Q00416).
T2 construct: gene SEN1; helicase core 1095-1904, ~90 kDa; C-terminal CPD-His8 tag cut off with 3C protease; expressed in E. coli BL21 (DE3) STAR pRARE
T2 sequence (Q00416 1095-1904): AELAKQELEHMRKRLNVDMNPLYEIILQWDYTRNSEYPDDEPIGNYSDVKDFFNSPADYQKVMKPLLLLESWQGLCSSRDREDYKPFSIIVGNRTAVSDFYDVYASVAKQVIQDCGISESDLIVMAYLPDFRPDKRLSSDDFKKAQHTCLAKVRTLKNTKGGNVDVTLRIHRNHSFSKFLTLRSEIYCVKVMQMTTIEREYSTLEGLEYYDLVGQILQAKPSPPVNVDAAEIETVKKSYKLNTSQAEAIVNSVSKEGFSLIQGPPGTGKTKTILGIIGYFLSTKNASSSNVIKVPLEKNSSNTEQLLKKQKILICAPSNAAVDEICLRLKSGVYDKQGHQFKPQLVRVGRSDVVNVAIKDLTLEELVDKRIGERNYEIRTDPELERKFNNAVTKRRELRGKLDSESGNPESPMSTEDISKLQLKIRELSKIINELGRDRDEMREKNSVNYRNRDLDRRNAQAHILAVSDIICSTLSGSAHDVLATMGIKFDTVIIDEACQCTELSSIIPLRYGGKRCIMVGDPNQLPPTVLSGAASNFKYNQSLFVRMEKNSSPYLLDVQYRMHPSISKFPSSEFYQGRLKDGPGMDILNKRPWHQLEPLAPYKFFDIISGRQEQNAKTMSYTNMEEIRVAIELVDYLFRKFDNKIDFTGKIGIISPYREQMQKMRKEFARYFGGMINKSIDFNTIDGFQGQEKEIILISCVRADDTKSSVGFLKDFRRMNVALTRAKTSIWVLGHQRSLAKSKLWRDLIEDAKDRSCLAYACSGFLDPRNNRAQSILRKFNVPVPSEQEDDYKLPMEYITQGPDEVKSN
Briefly: ATP hydrolysis, alpha-32P-ATP, thin-layer chromatography. Type of series: biochemical. The settings on record: polyU 50 ng/ul, 250 uM ATP, 1 mM MgCl2, pH 7.5, 28 C.

In series [3] the target is T3, Sen1Hel N1413S (Saccharomyces cerevisiae, UniProt Q00416 1095-1904, N1413S).
T3 sequence: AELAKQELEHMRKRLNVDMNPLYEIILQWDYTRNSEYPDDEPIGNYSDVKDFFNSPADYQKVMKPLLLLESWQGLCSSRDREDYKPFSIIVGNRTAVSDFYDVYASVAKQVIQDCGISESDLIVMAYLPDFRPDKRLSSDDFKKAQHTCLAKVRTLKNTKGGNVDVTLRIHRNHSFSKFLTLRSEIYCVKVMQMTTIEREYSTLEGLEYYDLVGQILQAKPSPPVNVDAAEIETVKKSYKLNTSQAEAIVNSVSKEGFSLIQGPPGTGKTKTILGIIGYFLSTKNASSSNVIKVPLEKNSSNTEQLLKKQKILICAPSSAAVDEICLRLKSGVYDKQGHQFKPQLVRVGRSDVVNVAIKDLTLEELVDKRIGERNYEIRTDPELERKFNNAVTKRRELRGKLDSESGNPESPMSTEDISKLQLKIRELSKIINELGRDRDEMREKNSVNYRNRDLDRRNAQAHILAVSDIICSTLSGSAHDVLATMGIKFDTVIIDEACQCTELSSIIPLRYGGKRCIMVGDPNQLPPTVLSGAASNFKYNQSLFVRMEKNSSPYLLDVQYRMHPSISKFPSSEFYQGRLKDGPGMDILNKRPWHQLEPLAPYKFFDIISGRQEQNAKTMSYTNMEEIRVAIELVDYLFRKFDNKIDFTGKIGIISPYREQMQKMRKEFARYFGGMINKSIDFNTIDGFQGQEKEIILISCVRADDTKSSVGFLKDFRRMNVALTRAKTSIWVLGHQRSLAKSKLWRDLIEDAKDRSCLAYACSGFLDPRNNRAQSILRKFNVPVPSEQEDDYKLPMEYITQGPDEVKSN
As to the kind of experiment: fluorescence anisotropy; 2 mM Mg2+; text says impaired; FA: 20 mM Hepes pH 7.5, 300 mM NaCl, 2 mM MgCl2, 1 mM DTT, 20 C, 10 nM RNA; EMSA: 2 nM RNA, 10-160 nM protein (buffer not in the material). The following applies: protein: recombinant; tags: C-terminal CPD-His8 removed by 3C; label: 5' fluorescein.

For series [4], the target named is T4, Sen1Hel (wild type) (Saccharomyces cerevisiae, UniProt Q00416 1095-1904).
T4 sequence: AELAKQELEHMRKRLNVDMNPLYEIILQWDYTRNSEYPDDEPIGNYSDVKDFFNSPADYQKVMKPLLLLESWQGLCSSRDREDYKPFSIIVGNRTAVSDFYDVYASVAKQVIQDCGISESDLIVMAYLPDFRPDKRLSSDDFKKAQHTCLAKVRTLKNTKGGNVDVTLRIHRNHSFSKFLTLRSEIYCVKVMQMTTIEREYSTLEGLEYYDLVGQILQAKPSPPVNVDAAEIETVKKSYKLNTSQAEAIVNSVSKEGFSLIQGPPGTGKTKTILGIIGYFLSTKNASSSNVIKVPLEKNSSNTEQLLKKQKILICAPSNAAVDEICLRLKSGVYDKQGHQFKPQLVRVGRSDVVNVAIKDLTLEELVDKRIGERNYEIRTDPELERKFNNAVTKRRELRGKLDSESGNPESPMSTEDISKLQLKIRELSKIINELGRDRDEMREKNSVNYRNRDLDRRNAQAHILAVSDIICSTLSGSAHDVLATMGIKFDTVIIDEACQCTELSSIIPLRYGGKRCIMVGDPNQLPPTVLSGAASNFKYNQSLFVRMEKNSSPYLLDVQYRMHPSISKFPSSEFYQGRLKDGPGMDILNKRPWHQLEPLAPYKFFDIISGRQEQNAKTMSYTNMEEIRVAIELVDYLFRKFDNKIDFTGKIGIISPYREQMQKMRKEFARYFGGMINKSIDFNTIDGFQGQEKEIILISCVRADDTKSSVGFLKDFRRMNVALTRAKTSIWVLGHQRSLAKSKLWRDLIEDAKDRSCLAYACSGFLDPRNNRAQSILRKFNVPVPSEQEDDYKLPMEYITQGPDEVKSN
Briefly: fluorescence anisotropy; 2 mM Mg2+; FA: 20 mM Hepes pH 7.5, 300 mM NaCl, 2 mM MgCl2, 1 mM DTT, 20 C, 10 nM RNA; EMSA: 2 nM RNA, 10-160 nM protein (buffer not in the material). The following applies: protein: recombinant; tags: C-terminal CPD-His8 removed by 3C; label: 5' fluorescein.

Series [5] deals with T5, Sen1Hel P1622L (Saccharomyces cerevisiae, UniProt Q00416 1095-1904, P1622L).
T5 sequence: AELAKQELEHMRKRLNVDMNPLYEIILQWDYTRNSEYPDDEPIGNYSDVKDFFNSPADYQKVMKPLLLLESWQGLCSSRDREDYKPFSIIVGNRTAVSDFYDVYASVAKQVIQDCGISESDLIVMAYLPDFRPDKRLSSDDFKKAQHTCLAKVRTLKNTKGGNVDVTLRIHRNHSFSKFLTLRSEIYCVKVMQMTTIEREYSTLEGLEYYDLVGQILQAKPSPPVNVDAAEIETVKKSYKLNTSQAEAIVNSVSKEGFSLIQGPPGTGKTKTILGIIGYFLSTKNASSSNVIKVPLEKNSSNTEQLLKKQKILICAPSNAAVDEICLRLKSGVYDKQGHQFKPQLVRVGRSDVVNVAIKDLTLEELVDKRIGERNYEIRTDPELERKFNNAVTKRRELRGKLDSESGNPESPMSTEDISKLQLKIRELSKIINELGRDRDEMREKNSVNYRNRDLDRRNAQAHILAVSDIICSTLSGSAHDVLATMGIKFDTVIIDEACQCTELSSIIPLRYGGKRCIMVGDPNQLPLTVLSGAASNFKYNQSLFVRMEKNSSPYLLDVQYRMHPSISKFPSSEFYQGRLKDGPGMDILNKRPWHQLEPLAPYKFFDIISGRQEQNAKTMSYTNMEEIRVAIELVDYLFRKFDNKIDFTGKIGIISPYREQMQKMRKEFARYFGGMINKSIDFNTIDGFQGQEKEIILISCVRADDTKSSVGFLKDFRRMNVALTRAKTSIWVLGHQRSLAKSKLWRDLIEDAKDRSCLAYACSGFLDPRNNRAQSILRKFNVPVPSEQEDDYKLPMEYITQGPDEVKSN
The description is as above. The settings on record: protein: recombinant; tags: C-terminal CPD-His8 removed by 3C; label: 5' fluorescein.

Series [6] concerns the target T4, Sen1Hel (wild type). As to the kind of experiment: EMSA; high-order complexes at high protein; FA: 20 mM Hepes pH 7.5, 300 mM NaCl, 2 mM MgCl2, 1 mM DTT, 20 C, 10 nM RNA; EMSA: 2 nM RNA, 10-160 nM protein (buffer not in the material). The settings on record: protein: recombinant; tags: C-terminal CPD-His8 removed by 3C; label: 5' fluorescent label.
In series [7] the target is T6, Sen1Hel deltaLP (Saccharomyces cerevisiae, UniProt Q00416 1095-1904, del1461-1554).
T6 sequence: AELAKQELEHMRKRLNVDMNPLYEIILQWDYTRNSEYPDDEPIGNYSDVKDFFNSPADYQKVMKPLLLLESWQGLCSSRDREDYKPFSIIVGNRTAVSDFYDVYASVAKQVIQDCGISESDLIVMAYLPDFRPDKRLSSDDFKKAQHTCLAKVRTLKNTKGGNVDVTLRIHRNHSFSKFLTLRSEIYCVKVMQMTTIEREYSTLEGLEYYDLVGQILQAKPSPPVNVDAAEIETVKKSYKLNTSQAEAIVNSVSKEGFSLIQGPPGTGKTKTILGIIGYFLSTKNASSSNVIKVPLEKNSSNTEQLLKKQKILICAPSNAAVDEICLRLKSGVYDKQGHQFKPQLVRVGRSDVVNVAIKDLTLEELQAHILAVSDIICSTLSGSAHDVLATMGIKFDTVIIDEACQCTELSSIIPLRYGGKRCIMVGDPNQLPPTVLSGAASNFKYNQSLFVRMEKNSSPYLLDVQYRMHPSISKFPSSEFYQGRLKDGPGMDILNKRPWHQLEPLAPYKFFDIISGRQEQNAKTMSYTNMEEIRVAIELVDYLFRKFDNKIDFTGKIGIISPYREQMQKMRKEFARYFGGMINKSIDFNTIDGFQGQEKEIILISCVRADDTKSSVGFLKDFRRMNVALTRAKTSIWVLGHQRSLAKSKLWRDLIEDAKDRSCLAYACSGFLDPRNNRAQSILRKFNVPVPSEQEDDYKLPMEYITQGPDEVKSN
As to the kind of experiment: EMSA; FA: 20 mM Hepes pH 7.5, 300 mM NaCl, 2 mM MgCl2, 1 mM DTT, 20 C, 10 nM RNA; EMSA: 2 nM RNA, 10-160 nM protein (buffer not in the material). The settings on record: protein: recombinant; tags: C-terminal CPD-His8 removed by 3C; label: 5' fluorescent label.

Turning to `Nc1ncnc2c1ncn2[C@@H]1O[C@H](COP(=O)(O)OP(=O)(O)O)[C@@H](O)[C@H]1O` [ADP], the “X-ray crystal structure, 1.8 A” value in series [1] was “We crystallized Sen1Hel in the presence of ADP and determined the structure”. With `Nc1ncnc2c1ncn2[C@@H]1O[C@H](COP(=O)(O)OP(=O)(O)OP(=O)(O)O)[C@@H](O)[C@H]1O` [ATP], in series [2], the “ATP hydrolysis, alpha-32P-ATP, thin-layer chromatography” value is “Sen1Hel showed levels of RNA‐dependent ATPase activity similar to those of full‐length Sen1”.

B1: ARE 15-mer AU-rich RNA (ssRNA)
RNA: UUUCUAUUUAUUUUG
In the case of B1, the binding result in series [3] is on record as “no binding”. For the same molecule, the Kd in series [4] was about 0.6 µM; in series [5] it was about 6.4 µM.

B2: DL3316 44-mer RNA (ssRNA)
RNA: UUCAUUUCAGACCAGCACCCACUCACUACAACUCACGACCAGGC
On to B2, for which the binding result in series [6] and in series [7] was “binds” in each case.

The values are drawn from article PMC5452015, “Sen1 has unique structural features grafted on the architecture of the Upf1‐like helicase family” (The EMBO Journal, 2017).
